Article PMC6788708, “Occurrence and stability of hetero-hexamer associations formed by β-carboxysome CcmK shell components” (PLoS ONE, 2019)
Where “and” joins values, the source holds several entries; their conditions need not be identical. Equal values may be shown once.

T1: CcmK2 (Synechocystis sp. PCC6803), FLAG tag removed by TEV protease (Synechocystis sp. PCC6803, UniProt P72761 1-103)
T1 construct: CcmK2, BMC-H carboxysome shell protein of Synechocystis sp; PCC 6803; monomer masses in native MS indicate loss of the first methionine; Residues left after TEV cleavage are in S1 List; source: E. coli BL21(DE3), co-expressed with K1-His4, co-purified on TALON, tag removed with TEV protease; not shown: FLAG, C-terminal, cleaved
T1 sequence (looked up): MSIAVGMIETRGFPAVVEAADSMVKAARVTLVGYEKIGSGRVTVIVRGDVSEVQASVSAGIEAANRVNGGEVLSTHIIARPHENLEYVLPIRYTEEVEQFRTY

B1: CcmK4 (Synechocystis sp. PCC6803), His4 tag removed by TEV protease (natural protein, UniProt P73407 1-112, looked up)
chain: MSAQSAVGSIETIGFPGILAAADAMVKAGRITIVGYIRAGSARFTLNIRGDVQEVKTAMAAGIDAINRTEGADVKTWVIIPRPHENVVAVLPIDFSPEVEPFREAAEGLNRR
notes: CcmK4, BMC-H carboxysome shell protein of Synechocystis sp; PCC 6803; In native MS it came from His4-K4 co-expressed with K3-FLAG; The untagged K4 homo-hexamer of the exchange experiment was made from a His4-tagged K4 expressed alone; Residues left after TEV cleavage are in S1 List; also called untagged K4; TEV-untagged His4-K4; source: E. coli BL21(DE3), TALON-purified, tag removed with TEV …
B2: His4-CcmK4 (Synechocystis sp. PCC6803 CcmK4, N-ter His4 tag) (natural protein, UniProt P73407 1-112, looked up)
chain: B1 chain
notes: CcmK4, BMC-H carboxysome shell protein of Synechocystis sp; PCC 6803; The crystallised sample came from His4-K4/K3-FLAG; no tag removal is told for it; also called His4-K4; source: E. coli BL21(DE3), co-expressed (pET26b-based plasmid, two or four cassettes), soluble fraction of the lysate; TALON-purified (pIsep-FPLC for crystallisation); not shown: His4, N-terminal, kept
B3: CcmK3 (Synechocystis sp. PCC6803), FLAG tag removed by TEV protease (natural protein, UniProt P73406 1-103, looked up)
chain: MPQAVGVIQTLGFPSVLAAADAMLKGGRVTLVYYDLAERGNFVVAIRGPVSEVNLSMKMGLAAVNESVMGGEIVSHYIVPNPPENVLAVLPVEYTEKVARFRT
notes: CcmK3, BMC-H carboxysome shell protein of Synechocystis sp; PCC 6803; monomer mass agrees with loss of the first methionine; Residues left after TEV cleavage are in S1 List; also called TEV-untagged K3-FLAG; source: E. coli BL21(DE3), co-expressed with His4-K4, co-purified on TALON, tag removed with TEV protease; not shown: FLAG, C-terminal, cleaved
B4: CcmK1 (Synechocystis sp. PCC6803), His4 tag removed by TEV protease (natural protein, UniProt P72760 1-111, looked up)
chain: MSIAVGMIETLGFPAVVEAADSMVKAARVTLVGYEKIGSGRVTVIVRGDVSEVQASVTAGIENIRRVNGGEVLSNHIIARPHENLEYVLPIRYTEAVEQFREIVNPSIIRR
notes: CcmK1, BMC-H carboxysome shell protein of Synechocystis sp; PCC 6803; monomer masses in native MS indicate loss of the first methionine; In native MS it came from K1-His4 co-expressed with K2-FLAG; Residues left after TEV cleavage are in S1 List; also called untagged K1; source: E. coli BL21(DE3), TALON-purified, tag removed with TEV protease; not shown: His4, C-terminal, cleaved

Key:
[1] = target: the molecule itself; test: native MS; TALON-purified co-expressed samples, tags removed with TEV protease; 150 mM ammonium acetate pH 8; positive-ion native ESI-MS with collision induced dissociation of selected hexamers
[2] = target: the molecule itself; test: crystal structure; pIsep-FPLC fractions of His4-CcmK4/CcmK3-FLAG at 2.9 mg/mL; 22% PEG 4000, 0.2 M ammonium sulfate, 0.1 M sodium acetate pH 4.6, 12 C; only CcmK4 found in the crystal
[3] = target: B1; test: native MS; TALON-purified co-expressed samples, tags removed with TEV protease; 150 mM ammonium acetate pH 8; positive-ion native ESI-MS with collision induced dissociation of selected hexamers; settings: both partners purified
[4] = target: T1, CcmK2 (Synechocystis sp. PCC6803), FLAG …; test: as above; settings: both partners purified

Binder: B1
- stoichiometry N [1]: 6 subunits

Binder: B2
- stoichiometry N [2]: 6 subunits

Binder: B3
- stoichiometry N [3]: 0.2 K3:K4 in the hexamer (1:5) and 0.5 K3:K4 in the hexamer (2:4)

Binder: B4
- stoichiometry N [4]: 0.2 K1:K2 in the hexamer (1:5) and 2 K1:K2 in the hexamer (4:2)
